Our source for the Km values is article PMC3361975.

This series deals with NC(=O)c1ccc[n+]([C@@H]2O[C@H](COP(=O)(O)OP(=O)(O)OC[C@H]3O[C@@H](n4cnc5c(N)ncnc54)[C@H](O)[C@@H]3O)[C@@H](O)[C@H]2O)c1. As to the kind of experiment: purified protein. To be noted: phosphite and NAD+ varied, 100 mM MOPS pH 7.25, 25 °C.
Take “17X-PTDH (Stutzerimonas stutzeri; A319E/A325V/C336D/D13E/E130K/E175A/E332N/I150F/I313L/L276Q/M26I/Q132R/Q137R/Q215L/R275Q/R301A/V315A/V71I)”: the Km is 0.216 (0.015) mM.

On to “17X-PTDH (Stutzerimonas stutzeri; A319E/A325V/C336D/D13E/E130K/E175A/E332N/I150F/I313L/L276Q/M26I/Q132R/Q137R/Q215L/R275Q/R301K/V315A/V71I)”, for which the Km is on record as 0.074 (0.007) mM.

For the substance “17X-PTDH (Stutzerimonas stutzeri; A319E/A325V/C336D/D13E/E130K/E175A/E332N/I150F/I313L/L276Q/M26I/Q132R/Q137R/Q215L/R275Q/V315A/V71I)”, the Km was 0.022 (0.006) mM.
